Patent US20240352434, “COMPOSITIONS COMPRISING A VARIANT CAS12I3 POLYPEPTIDE AND USES THEREOF” (Arbor Biotechnologies, Inc., published 2024)
Substitutions are numbered along the chain they refer to.

T1: Cas12i3 S536R N711R S801R (Unidentified, S536R,N711R,S801R)
T1 chain: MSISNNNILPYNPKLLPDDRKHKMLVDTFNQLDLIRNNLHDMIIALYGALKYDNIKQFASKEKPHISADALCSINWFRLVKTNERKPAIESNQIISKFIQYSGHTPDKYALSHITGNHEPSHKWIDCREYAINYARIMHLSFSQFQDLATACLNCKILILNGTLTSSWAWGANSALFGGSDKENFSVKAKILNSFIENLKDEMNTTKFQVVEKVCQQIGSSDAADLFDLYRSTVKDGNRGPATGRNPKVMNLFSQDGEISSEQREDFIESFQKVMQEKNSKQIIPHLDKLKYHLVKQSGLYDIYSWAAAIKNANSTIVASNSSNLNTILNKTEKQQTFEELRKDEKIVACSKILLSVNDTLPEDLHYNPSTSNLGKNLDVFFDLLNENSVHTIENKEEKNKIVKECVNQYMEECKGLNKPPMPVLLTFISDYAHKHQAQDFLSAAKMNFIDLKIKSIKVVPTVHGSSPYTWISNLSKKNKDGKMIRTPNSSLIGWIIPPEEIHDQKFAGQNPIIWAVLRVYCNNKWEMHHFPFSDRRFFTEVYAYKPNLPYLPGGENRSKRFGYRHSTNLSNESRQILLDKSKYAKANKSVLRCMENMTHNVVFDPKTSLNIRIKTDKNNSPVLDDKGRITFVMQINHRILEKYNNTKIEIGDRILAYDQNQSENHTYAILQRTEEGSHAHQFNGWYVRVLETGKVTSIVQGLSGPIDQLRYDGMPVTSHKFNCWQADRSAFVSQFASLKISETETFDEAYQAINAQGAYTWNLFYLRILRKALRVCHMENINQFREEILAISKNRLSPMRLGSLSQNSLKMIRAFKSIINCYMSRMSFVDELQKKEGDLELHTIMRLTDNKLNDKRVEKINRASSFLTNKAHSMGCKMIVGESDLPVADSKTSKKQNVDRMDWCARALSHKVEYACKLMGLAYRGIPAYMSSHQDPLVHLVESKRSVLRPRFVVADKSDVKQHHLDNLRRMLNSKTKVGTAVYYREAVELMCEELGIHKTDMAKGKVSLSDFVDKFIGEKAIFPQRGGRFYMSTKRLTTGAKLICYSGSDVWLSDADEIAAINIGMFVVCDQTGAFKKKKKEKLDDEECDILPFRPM

T2: Cas12i3 K583R N711R C724R (Unidentified, K583R,N711R,C724R)
T2 chain: T1 chain with R536S, K583R, C724R, R801S

B1: VEGFA_T2 crRNA ; VEGFA_T2 target (ssRNA ; dsDNA)
RNA: AUAGUGUGUCCUUAGUUGACAUAAUCCUCCACCAGUCAUGGU
DNA 1: AATCCTCCACCAGTCATGGT
DNA 2: ACCATGACTGGTGGAGGATT
B2: EMX1_T5 crRNA ; EMX1_T5 target (ssRNA ; dsDNA)
RNA: AUAGUGUGUCCUUAGUUGACAUUAUUAUUCCCAUAGGGAAGG
DNA 1: TATTATTCCCATAGGGAAGG
DNA 2: CCTTCCCTATGGGAATAATA
B3: AAVS1_T3 crRNA ; AAVS1_T3 target (ssRNA ; dsDNA)
RNA: AUAGUGUGUCCUUAGUUGACAUGUGAGAAUGGUGCGUCCUAG
DNA 1: GTGAGAATGGTGCGTCCTAG
DNA 2: CTAGGACGCACCATTCTCAC

Target: T1, Cas12i3 S536R N711R S801R
Experiment: cell_activity; fold change in % indels, HEK293T; PAM not stated in example
Description: (§1) Approximately 16 hours prior to transfection, 100 μl of 25,000 HEK293T cells in DMEM/10% FBS+Pen/Strep were plated into each well of a 96-well plate. On the day of transfection, the cells were 70-90% confluent. For each well to be transfected, a mixture of 0.5 μl of Lipofectamine 2000 and 9.5 μl of Opti-MEM was prepared and then incubated at room temperature for 5-20 minutes (Solution 1). […] In the case of negative controls, the crRNA was not included in Solution 2. The solution 1 and solution 2 mixtures were mixed by pipetting up and down and then incubated at room temperature for 25 minutes. Following incubation, 20 μL of the Solution 1 and Solution 2 mixture were added dropwise to each well of a 96 well plate containing the cells. 72 hours post transfection, cells are trypsinized by adding 10 μL of TrypLE to the center of each well and incubated for approximately 5 minutes. 100 μL of D10 media was then added to each well and mixed to resuspend cells. The cells were then spun down at 500 g for 10 minutes, and the supernatant was discarded. QuickExtract buffer was added to ⅕ the amount of the original cell suspension volume. Cells were incubated at 65° C. for 15 minutes, 68° C. for 15 minutes, and 98° C. for 10 minutes.
(§2) Samples for Next Generation Sequencing were prepared by two rounds of PCR. The first round (PCR1) was used to amplify specific genomic regions depending on the target. PCR1 products were purified by column purification. Round 2 PCR (PCR2) was done to add Illumina adapters and indexes. Reactions were then pooled and purified by column purification. Sequencing runs were done with a 150 cycle NextSeq v2.5 mid or high output kit.

For B1, which binding signal is on record?
The binding signal was 2.55 fold of wild-type.

How did the binding signal turn out when B2 was run?
Its binding signal is 1.68 fold of wild-type.

Which binding signal does the source give for B3 here?
The binding signal was 2.1 fold of wild-type.

Target: T2, Cas12i3 K583R N711R C724R
Experiment: as above
Description: as §1, §2

B1 was tested. Which binding signal did it give?
Its binding signal is 2.57 fold of wild-type.

Which binding signal does the source give for B2 here?
Its binding signal is 1.99 fold of wild-type.

How did the binding signal turn out when B3 was run?
Its binding signal is 2.96 fold of wild-type.
